One test concerns PC12E2 cells. Put plainly: Neurite outgrowth from PC12E2 cells. The class given is cell-based. To be noted: for stimulatory effect on neurite outgrowth: chromatographic fractions of COS-7 conditioned medium, 48 h, compared to negative control (conditioned medium from COS-7 cells without Sema3E proteins). As to the method: Conditioned medium from COS-7 cells stably transfected with full-length Sema3E was collected and fractionated using heparin-sepharose affinity chromatography and consequent size-exlusion fractionation. Fractions containing different isoforms of Sema3E were collected and tested for neuritogenic activity.
PC12E2 cells were plated on poly-L-lysine coated 48-well plates (Costar) (5,000 cells/well) and grown overnight in DME/F12 medium supplemented with 5% foetal calf serum (FCS) and 10% horse serum (HS) at 37 C°, 5% CO2. The chromatographic fractions were dialyzed against DME/F12 medium without serum, protein concentration was adjusted to 10 μg/ml, and diluted 1:1 in conditioned medium collected from non-transfected COS-7 cells grown for 72 h in serum free DME/F12 medium. PC12E2 cells were incubated with samples of different Sema3E fractions for 48 h, afterwards cells were fixed with 11% glutaraldehyde in PBS, washed in PBS and stained with 0.1% crystal violet in 20% methanol, and neurite outgrowth was quantified. […] A neurite outgrowth index was calculated in each experiment dividing the percentage of neurite outgrowth index in the test sample by the percentage of neurite outgrowth index in response to conditioned medium from COS7 cells without Sema3E proteins (negative control). Other controls were: nerve growth factor (NGF), tested at concentration 500 ng/ml (positive control), and non-fractionated conditioned medium from COS-7 cells expressing full-length Sema3E, tested at concentration 50 μg total protein/mi. Activity was defined as the index divided by 2.
The truncated p61 isoform of Sema3E was further expressed as recombinant protein ([…]) in Pichia pastoris as described above, purified using Ni2+ affinity chromatography and tested in a neurite outgrowth assay described above. […] NGF at (positive control, 125 ng/ml) stimulated neurite outgrowth up to 40%.

In a further test the test system is SVEC4-10 cells. Put plainly: Endothelial cell motility in blindwell chambers (SVEC4-10). The format is cell-based, mouse. To be noted: for cell-motility-stimulating activity of purified Sema3E isoform fractions: fractions from heparin-sepharose and size-exclusion chromatography of COS-7 medium. As to the method: 200.000 endothelial mouse lymph nodes SVEC4-10 cells were suspended either in serum free DME/F12 (1:1) medium containing 25 mM Hepes pH 7.4, 0.1% BSA and D-glucose, or conditioned medium collected from cells expressing different Sema3E constructs and were loaded in the top compartments of blindwell chambers. The cells were left to adhere to fibronectin-coated polycarbonate filters within 3 h after seeding, and allowed to migrate through the pores of the filters in the next 3-6 h. Conditioned media from Sema3E or mock transfected 168FARN cells and COS-7 cells transfected with a pcDNA3.1: LacZ were used to examine the effect of the presence of Sema3E in the medium on endothelial cell motility. Migration of SVEC4-10 cells was evaluated after 5 h exposure to the conditioned media with or without Sema3E.
The full-length Sema3E expressed in cells can give a raise to several naturally occurring isoforms of Sema3E, such as for example the truncated p61-Sema3E, a full-length p87-Sema3E, or a dimer p87:p87-Sema3E. The effect of different isoforms of Sema3E on cell motility was studied by using the isoforms purified from conditioned medium collected from tranfected COS-7 cells in the assay described above. The proteins were purified by heparin-sepharose affinity chromatography with following size-exclusion chromatography. All fractions collected from the size-exclusion column were tested for the presence of cell-motility-stimulating activity.
Background: SEC sorts molecules by how far they enter the pores of the column.

Test [1] has as its system 168FARN mouse tumor cells colonising the lungs. Put plainly: Experimental lung metastasis assay with transfected 168FARN cells. The class given is in vivo, Balb/c mice. The procedure: Non-metastatic 168FARN mouse tumor cells were stably transfected with the pcDNA3.1(−)/zeo^R vector encoding a wild-type Sema3E, or mock transfected with the empty vector as described above. Two clones expressing secreted Sema3E, 168FARN: 2s and 168FARN: 14, and a mock transfected clone, 168FARN: 16 were tested for their ability to colonise the lungs in the experimental metastasis assay as described previously (Christensen et al, 1998, Cancer Res 58:1238-44). Briefly, 10^5 cells were injected in the tail vein of female Balb/c mice (age 8-9 weeks). 4 weeks later the lungs were examined for tumor growth.
168FARN cells were stably transfected with constructs encoding 1-560 amino acid fragment of the sequence Sema3E, which corresponds to 61 kDa fragment of Sema3E (p61-Sema3E), a full-length Sema3E mutated on KRRFRR site (Sema3E(−) (+)myc), and a wild-type full-length Sema3E as described above, and stable clones expressing the proteins were injected to mice to induce the experimental metastasis. 10^5 cells of each clone expressing different constructs were injected into the tail vein of female Balb/c mice. After 24 days the lungs were excised, weighted and scored for the presence of visible lung tumors. The p61-Sema3E clones (two groups: clone#1, n=8; clone#5, n=6) were highly aggressive compared to a control group (injected with the cells expressing a secreted alkaline phosphatase (AP)), showing an increase in overall lung weight at about 300%.

Test [2] deals with SVEC4-10 endothelial cells. Put plainly: 3D co-culture of SVEC4-10 and 168FARN aggregates in matrigel. The class given is cell-based, mouse. To be noted: co-culture with transfected 168FARN aggregates 3-5 mm apart, 7 days. The procedure: 100,000 cells in 10 μl were aggregated by incubation in a hanging drop at 37° C. for 4 h. The aggregates were moved onto a layer of solidified ECM gel (matrigel) so, that SVEC4-10 aggregates were placed 3-5 mm apart from the aggregates of 168FARN:AP (clone#3, control clone expressing AP), or 168FARN:p61-Sema3E (clone#5, expressing the non-tagged p61-sema3E isoform), or 168FARN:AP-p61-Sema3E (done#5, expressing the AP-tagged p61 isoform). Another layer of matrigel was added on the top of the aggregates. After 7 days of incubation aggregates were examined for invasive growth.

On to “NGF: nerve growth factor, positive control [reference compound]”, for which the “stimulation of neurite outgrowth” value in the test on PC12E2 cells (positive control, 125 ng/ml) was “up to 40%”.
Regarding heparin [reference compound], the “response of SVEC4-10 cells to p61-Sema3E-MH in presence of soluble heparin” value with SVEC4-10 cells (heparin in the medium at 1-10 μg/ml) was “decreased the response of SVEC4-10 cells to the p61 -Sema3E-MH to the basal level”.

B1: p61-Sema3E: 1-560 amino acid fragment of Sema3E, 61 kDa truncated isoform from furin cleavage (SEQ ID NO: 3) (protein, listed as Mus sp.)
chain: MAPAGHILTLLLWGHLLELWTPGHSANPSYPRLRLSHKELLELNRTSIFQSPLGFLDLHTMLLDEYQERLFVGGRDLVYSLNLERVSDGYREIYWPSTAVKVEECIMKGKDANECANYIRVLHHYNRTHLLTCATGAFDPHCAFIRVGHHSEEPLFHLESHRSERGRGRCPFDPNSSFVSTLVGNELFAGLYSDYWGRDSAIFRSMGKLGHIRTEHDDERLLKEPKFVGSYMIPDNEDRDDNKMYFFFTEKALEAENNAHTIYTRVGRLCVNDMGGQRILVNKWSTFLKARLVCSVPGMNGIDTYFDELEDVFLLPTRDPKNPVIFGLFNTTSNIFRGHAVCVYHMSSIREAFNGPYAHKEGPEYHWSLYEGKVPYPRPGSCASKVNGGKYGTTKDYPDDAIRFARIDPLMYQPIKPVHKKPILVKTDGKYNLRQLAVDRVEAEDGQYDVLFIGTDTGIVLKVITIYNQETEWMEEVILEELQIFKDPAPIISMEISSKRQQLYIGSASAVAQVRFHHCDMYGSACADCCLARDPYCAWDGISCSRYYPTGAHAKRRFRR
For B1, the “stimulatory effect on neurite outgrowth” value in the test with PC12E2 cells is on record as 24-39%. Moreover, the “cell-motility-stimulating activity of purified Sema3E isoform fractions” value in the test on SVEC4-10 cells was “attractive for SVEC4-10 cells”. The “increase in overall lung weight” value in test [1] (168FARN clones #1 and #5, 10^5 cells tail vein, 24 days, versus control cells expressing secreted alkaline phosphatase (AP)) is on record as “about 300%”. Further, in test [1] (168FARN clones, 24 days, compared to Sema3E(−)(+)myc clones #14 and #6), the “lung weight versus groups with mutated Sema3E(−)(+)myc” value was “double increase”. The “invasive growth of SVEC4-10 endothelial cells” value in test [2] was “invasion of SVEC4-10 endothelial cells was observed”.

B2: p87:p87-Sema3E dimer: dimer of full-length p87-Sema3E purified from medium of transfected COS-7 cells (protein, UniProt O15041 1-775, looked up)
chain: MASAGHIITLLLWGYLLELWTGGHTADTTHPRLRLSHKELLNLNRTSIFHSPFGFLDLHTMLLDEYQERLFVGGRDLVYSLSLERISDGYKEIHWPSTALKMEECIMKGKDAGECANYVRVLHHYNRTHLLTCGTGAFDPVCAFIRVGYHLEDPLFHLESPRSERGRGRCPFDPSSSFISTLIGSELFAGLYSDYWSRDAAIFRSMGRLAHIRTEHDDERLLKEPKFVGSYMIPDNEDRDDNKVYFFFTEKALEAENNAHAIYTRVGRLCVNDVGGQRILVNKWSTFLKARLVCSVPGMNGIDTYFDELEDVFLLPTRDHKNPVIFGLFNTTSNIFRGHAICVYHMSSIRAAFNGPYAHKEGPEYHWSVYEGKVPYPRPGSCASKVNGGRYGTTKDYPDDAIRFARSHPLMYQAIKPAHKKPILVKTDGKYNLKQIAVDRVEAEDGQYDVLFIGTDNGIVLKVITIYNQEMESMEEVILEELQIFKDPVPIISMEISSKRQQLYIGSASAVAQVRFHHCDMYGSACADCCLARDPYCAWDGISCSRYYPTGTHAKRRFRRQDVRHGNAAQQCFGQQFVGDALDKTEEHLAYGIENNSTLLECTPRSLQAKVIWFVQKGRETRKEEVKTDDRVVKMDLGLLFLRLHKSDAGTYFCQTVEHSFVHTVRKITLEVVEEEKVEDMFNKDDEEDRHHRMPCPAQSSISQGAKPWYKEFLQLIGYSNFQRVEEYCEKVWCTDRKRKKLKMSPSKWKYANPQEKKLRSKPEHYRLPRHTLDS
modifications: full-length dimer
notes: dimer of full-length p87-Sema3E purified from medium of transfected COS-7 cells
As to B2, in the test on PC12E2 cells, the “stimulatory effect on neurite outgrowth” value is listed as 28-35%. For the same molecule, in the test on SVEC4-10 cells, the “cell-motility-stimulating activity of purified Sema3E isoform fractions” value was “failes to stimulate motility”.

B3: Sema3E: wild-type full-length mouse Sema3E (SEQ ID NO: 1) expressed in 168FARN cells (protein, listed as Mus sp.)
chain: MAPAGHILTLLLWGHLLELWTPGHSANPSYPRLRLSHKELLELNRTSIFQSPLGFLDLHTMLLDEYQERLFVGGRDLVYSLNLERVSDGYREIYWPSTAVKVEECIMKGKDANECANYIRVLHHYNRTHLLTCATGAFDPHCAFIRVGHHSEEPLFHLESHRSERGRGRCPFDPNSSFVSTLVGNELFAGLYSDYWGRDSAIFRSMGKLGHIRTEHDDERLLKEPKFVGSYMIPDNEDRDDNKMYFFFTEKALEAENNAHTIYTRVGRLCVNDMGGQRILVNKWSTFLKARLVCSVPGMNGIDTYFDELEDVFLLPTRDPKNPVIFGLFNTTSNIFRGHAVCVYHMSSIREAFNGPYAHKEGPEYHWSLYEGKVPYPRPGSCASKVNGGKYGTTKDYPDDAIRFARIDPLMYQPIKPVHKKPILVKTDGKYNLRQLAVDRVEAEDGQYDVLFIGTDTGIVLKVITIYNQETEWMEEVILEELQIFKDPAPIISMEISSKRQQLYIGSASAVAQVRFHHCDMYGSACADCCLARDPYCAWDGISCSRYYPTGAHAKRRFRRQDVRHGNAAQQCFGQQFVGDALDRTEERLAYGIESNSTLLECTPRSLQAKVIWFYQKGRDVRKEEVKTDDRVVKMDLGLLFLRVRKSDAGTYFCQTVEHNFVHTVRKITLEVVEEHKVEGMFHKDHEEERHHKMPCPPLSGMSQGTKPWYKEFLQLIGYSNFQRVEEYCEKVWCTDKKRKKLKMSPSKWKYANPQEKRLRSKAEHFRLPRHTLLS
In the case of B3, in test [1] (10^5 168FARN cells expressing wild-type Sema3E, tail vein, 4 weeks), the “increase of overall weight of the lungs” value was determined as 300%. Besides, the “lung colonisation / visible lung tumors” value in test [1] (168FARN clones 2s and 14 expressing secreted Sema3E, 4 weeks, versus parental or mock transfected cells) is “colonized the lungs and produced large tumors”.

The record behind these values is patent publication US20070010433A1, “Use of compounds capable of inhibiting the proteolytic processing of semaphorins for prevention, treatment, diagnosis and prognosis of an invasive disease” (SEMA APS, priority 2002, published 2007).
